{
  "source": "paper doi:10.1101/2020.10.26.352583",
  "about": "(bioRxiv, 2020)",
  "proteins": {"B1": {"name": "HDP1 DNA-binding domain (HDP1-DBD), aa2991-3078 (domain or fragment, P. falciparum, UniProt A0A2I0C2C6 2991-3078, looked up)", "chain": "SEVQVSNINTPSSYNISARRRRRIGNNGPPSAEELNRLLNIQHLTIPEIATIYGVHRTTIARWCNIRNITSNSMNNSPGKRRKNEDNK"}},
  "biological_target": "the molecule itself",
  "experiment": "ITC",
  "data": [
    {"protein": "B1", "values": [
      {"measurement": "binding result", "value": "binds"}
    ]}
  ]
}
